Experimental data from patent US20240309087A1 (SHANGHAI JUNSHI BIOSCIENCES, published 2024).

How the values were obtained:
[1] = molecular target: T1, hCD112R mFC recombinant protein (human; murine, UniProt Q6DKI7 41-160); experiment: ELISA, coated hCD112R-ECD-mFC; EC50 COM701/EC50 antibody
T1 construct: range 41-160; expressed in 293E cells; also called hCD112R ECD mFC; hCD112R-ECD-mFC; not shown: murine IgG2a Fc domain (MX2-mFc vector)
T1 sequence (looked up): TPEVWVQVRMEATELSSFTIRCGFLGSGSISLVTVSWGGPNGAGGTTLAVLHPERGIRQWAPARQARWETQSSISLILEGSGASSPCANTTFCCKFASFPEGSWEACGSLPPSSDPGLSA
In short: (§1)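 Plates coated with hCD112R-ECD-mFC at 1.5 μg/mL; humanized antibodies titrated from 1 μg/mL, 2.5-fold, 12 points. Bound antibody detected with HRP anti-human IgG Fc and TMB, read at 420/620 nm; EC50 from 4PL fit, COM701 and anti-KLH hu-IgG4 as controls.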

[2] = molecular target: T1, hCD112R mFC recombinant protein; experiment: ELISA, coated hCD112R-ECD-mFC
In short: as §1

[3] = molecular target: T2, human CD112R on Jurkat CD112R effector cells (human, UniProt Q6DKI7 1-326); experiment: cell-based or functional assay
T2 sequence (looked up): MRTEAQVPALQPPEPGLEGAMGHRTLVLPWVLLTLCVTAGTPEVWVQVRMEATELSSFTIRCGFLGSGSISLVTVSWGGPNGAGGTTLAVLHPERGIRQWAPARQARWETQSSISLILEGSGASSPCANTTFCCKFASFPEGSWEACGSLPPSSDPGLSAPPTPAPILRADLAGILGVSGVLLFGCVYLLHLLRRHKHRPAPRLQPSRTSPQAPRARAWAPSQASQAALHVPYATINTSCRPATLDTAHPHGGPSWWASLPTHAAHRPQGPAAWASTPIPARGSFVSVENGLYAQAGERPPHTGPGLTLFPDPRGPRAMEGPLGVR

[4] = molecular target: T1, hCD112R mFC recombinant protein; experiment: FACS competition, hCD112R mFc on CHO CD112 cells
In short: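 CHO cells overexpressing human CD112 were co-incubated 30 min at 4 °C with hCD112R mFc (5 μg/mL) and humanized anti-CD112R antibodies (from 100 μg/mL, 3-fold, 10 points). Bound fusion protein detected with anti-mouse IgG Fc secondary by flow cytometry; IC50 from four-parameter fit of MFI. COM701 served as positive control, anti-KLH hu-IgG4 as negative.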

[5] = molecular target: T1, hCD112R mFC recombinant protein; experiment: FACS competition, hCD112R mFc on CHO CD112 cells; IC50 COM701/IC50 antibody
Experimental: Cells CHO CD112 overexpressing human CD112 were co-incubated with a hCD112R mFc protein solution (5 μg/mL) prepared in a staining buffer (PBS+1% FBS), and the humanized anti-CD112R antibodies or the control antibodies at different concentrations (initial concentration: 100 μg/mL, 3-fold dilution, 10 concentration gradients) at 4° C. for 30 min. Unbound antibodies were then washed with a staining buffer and the cells were incubated with 1% (v/v) goat anti-mouse IgG Fc fluorescent secondary antibodies (Jackson ImmunoResearch) prepared in a staining buffer at 4° C. for 30 min in the dark. Finally, the cells were collected by using a flow cytometer (BD Canto II), and the fluorescent antibodies bound to the cell surface were detected. Raw data were analyzed by using FlowJo to obtain MFI values, and a four-parameter curve fitting was performed by using GraphPad Prism software to obtain IC₅₀ values. The positive control and the negative control were COM701 (anti-CD112R antibody, Compugen, obtained by expression and purification according to the sequences in US20180280506A1) and the anti-KLH hu-IgG4 antibody, respectively.

Row | Binder | Relative activity (%) [1] [%] | EC50 [2] [mg/L] | EC50, CD112R/CD112 reporter [3] [mg/L] | Relative activity (%), EC50 COM701/EC50 antibody [3] [%] | IC50 [4] [mg/L] | Relative activity (%) [5] [%]
1 | Hu6 (antibody, IgG4, V domains shown, humanized IgG4; also called Hu-06) VH: EVQLVESGGGLVQPGGSLRLSCAASGFTFSSYHMSWVRQAPGKGLELVAAINSNDINTYYLDTVKGRFTISRDIAKNSLYLQMNSLRAEDTAVYYCARHEDYYGFAMDYWGQGTLVTVSS VL: EIVMTQSPPTLSLSPGERVTLSCKASQSVSNDVAWYQQKPGQAPRLLIYYVSNRFTGIPARFSGSGSGTDFTLTISSLQPEDFAVYFCQQAYRSPWTFGQGTKLEIK | 158 | 0.00271 | 0.0529 | 128 | 4.46 | 89.1
2 | Hu27 (antibody, IgG4, V domains shown, humanized IgG4) VH: EVQLVESGGGLVQPGGSLRLSCAASGFTFSSYHMSWVRQAPGKGLELVAAISRDGDSTYYPDTVKGRFTISRDNAKNSLYLQMNSLRAEDTAVYYCSRHEDYFGFAMDSWGQGTLVTVSS VL: EIVMTQSPPTLSLSPGERVTLSCKASQSVSNDVAWYQEKPGQAPRLLIYYVSHRFTGIPARFSGSGSGTDFTLTISSLQPEDFAVYYCHQAYRSPWTFGQGTKLEIK | 137 | 0.00442 | 0.0328 | 217 | 2.31 | 155
3 | Hu54 (antibody, IgG4, V domains shown, humanized IgG4) VH: EVQLVESGGGLVKPGGSLRLSCAASGFTFSSYHMSWVRQAPGKGLELVSAINSNGINTYYLDTVKGRFTISRDNAKNSLYLQMNSLRAEDTAVYYCARHEDYYGFAMDYWGQGTLVTVSS VL: EIVMTQSPPTLSLSPGERVTLSCKASQSVSNDVAWYQQKPGQAPRLLIYYVSNRFTGIPARFSGSGSGTDFTLTISSLQPEDFAVYFCQQAYRSPWTFGQGTKLEIK | 145 | 0.00631 | 0.0241 | 300 | 3.25 | 74.1
4 | Hu12 (antibody, IgG4, V domains shown, humanized IgG4) VH: EVQLVESGGGLVKPGGSLRLSCAASGFTFSSYHMSWVRQAPGKGLELVSAINSNDINTYYLDTVKGRFTISRDIAKNSLYLQMNSLRAEDTAVYYCARHEDYYGFAMDYWGQGTLVTVSS VL: EIVMTQSPPTLSLSPGERVTLSCKASQSVSNDVAWYQQKPGQAPRLLIYYVSNRFTGIPARFSGSGSGTDFTLTISSLQPEDFAVYFCQQAYRSPWTFGQGTKLEIK | 136 | 0.00288 | 0.0542 | 144 | 4.18 | 95.1
5 | Hu15 (antibody, IgG4, V domains shown, humanized IgG4) VH: EVQLVESGGGLVKPGGSLRLSCAASGFTFSSYHMSWVRQAPGKGLELVSAISRDGDSTYYPDTVKGRFTISRDNAKNSLYLQMNSLRAEDTAVYYCSRHEDYFGFAMDSWGQGTLVTVSS VL: EIVMTQSPPTLSLSPGERVTLSCKASQSVSNDVAWYQEKPGQAPRLLIYYVSHRFTGIPARFSGSGSGTDFTLTISSLQPEDFAVYYCHQAYRSPWTFGQGTKLEIK | 127 | 0.00451 | 0.0237 | 209 | 3.29 | 109
6 | Hu9 (antibody, IgG4, V domains shown, humanized IgG4; also called Hu-09) VH: EVQLVESGGGLVKPGGSLRLSCAASGFTFSSYHMSWVRQAPGKGLELVSAINSNDINTYYLDTVKGRFTISRDIAKNSLYLQMNSLRAEDTAVYYCARHEDYYGFAMDYWGQGTLVTVSS VL: EIVMTQSPPTLSLSPGERVTLSCKASQSVSNDVAWYQEKPGQAPRLLIYYVSHRFTGIPARFSGSGSGTDFTLTISSLQPEDFAVYYCHQAYRSPWTFGQGTKLEIK | 114 | 0.00345 | 0.0385 | 195 | 4.08 | 97.5
7 | Hu57 (antibody, IgG4, V domains shown, humanized IgG4) VH: EVQLVESGGGLVQPGGSLRLSCAASGFTFSSYHMSWIRQAPGKGLELVAAINSNGINTYYLDTVKGRFTISRDNAKNSLYLQMNSLRAEDTAVYYCARHEDYYGFAMDYWGQGTLVTVSS VL: EIVMTQSPPTLSLSPGERVTLSCKASQSVSNDVAWYQEKPGQAPRLLIYYVSHRFTGIPARFSGSGSGTDFTLTISSLQPEDFAVYYCHQAYRSPWTFGQGTKLEIK | 171 | 0.00535 | 1.33 | 4.5 | 3.64 | 66.2
8 | Hu60 (antibody, IgG4, V domains shown, humanized IgG4) VH: EVQLVESGGGLVQPGGSLRLSCAASGFTFSSYHMSWIRQAPGKGLELVAAINSNGINTYYLDTVKGRFTISRDNAKNSLYLQMNSLRAEDTAVYYCARHEDYYGFAMDYWGQGTLVTVSS VL: EIVMTQSPPTLSLSPGERVTLSCKASQSVSNDVAWYQQKPGQAPRLLIYYVSNRFTGIPARFSGSGSGTDFTLTISSLQPEDFAVYFCQQAYRSPWTFGQGTKLEIK | 139 | 0.00602 | 0.0225 | 261 | 3.49 | 69
9 | Hu21 (antibody, IgG4, V domains shown, humanized IgG4) VH: EVQLVESGGGLVKPGGSLRLSCAASGFTFSSYHMSWVRQAPGKGLELVSAISRDGDSTYYPDTVKGRFTISRDDAENSLYLQMNSLRAEDTAVYYCSRHEDYFGFAMDSWGQGTLVTVSS VL: EIVMTQSPPTLSLSPGERVTLSCKASQSVSNDVAWYQEKPGQAPRLLIYYVSHRFTGIPARFSGSGSGTDFTLTISSLQPEDFAVYYCHQAYRSPWTFGQGTKLEIK | 229 | 0.0029 | 0.0285 | 179 | 2.44 | 146
10 | Hu22 (antibody, IgG4, V domains shown, humanized IgG4) VH: EVQLVESGGGLVKPGGSLRLSCAASGFTFSSYHMSWVRQAPGKGLELVSAISRDGDSTYYPDTVKGRFTISRDDAENSLYLQMNSLRAEDTAVYYCSRHEDYFGFAMDSWGQGTLVTVSS VL: DIVMTQSPDSLAVSLGERATINCKASQSVSNDVAWYQQKPGQPPKLLIYYVSHRFTGVPDRFSGSGSGTDFTLTISSLQAEDVAVYFCHQAYRSPWTFGQGTKLEIK | 156 | 0.00425 | 0.0267 | 191 | 2.67 | 134
